Patent US20240117334A1, “FACTOR B PROTEASES” (Vertex Pharmaceuticals Incorporated, priority 2021, published 2024)
Changes are numbered by the printed parent chain. Names may count otherwise.

B1: chymase C22S/P38Q/K40L/F41R/V138I/F173Y/D175N/A190S/V213A/S218V/A226R (enzyme)
chain: IIGGTESKPHSRPYMAYLEIVTSNGQSLRCGGFLIRRNFVLTAAHCAGRSITVTLGAHNITEEEDTWQKLEVIKQFRHPKYNTSTLHHDIMLLKLKEKASLTLAVGTLPFPSQFNFVPPGRMCRIAGWGRTGVLKPGSDTLQEVKLRLMDPQACSHYRNFDHNLQLCVGNPRKTKSSFKGDSGGPLLCAGVAQGIASYGRVDAKPPRVFTRISHYRPWINQILQAN
B2: chymase C22S/P38Q/K40L/F41R/V138I/F173L/D175H/A190S/V213A/S218V/A226R (enzyme)
chain: B1 chain with Y157L, N159H
B3: chymase C22S/P38Q/K40A/F41R/L99H/V138I/F173M/D175T/A190S/V213A/S218I/A226R (enzyme)
chain: B1 chain with L28A, L86H, Y157M, N159T, V201I
B4: chymase C22S/P38Q/K40M/F41R/L99Y/V138I/F173L/D175S/A190S/V213A/S218T/A226R (enzyme)
chain: B1 chain with L28M, L86Y, Y157L, N159S, V201T
B5: chymase C22S/P38Q/K40A/F41Q/V138I/F173S/D175W/A190S/V213A/S218V/A226R (enzyme)
chain: B1 chain with L28A, R29Q, Y157S, N159W
B6: chymase C22S/P38Q/K40M/F41K/L99W/V138I/F173M/A190S/V213A/S218N/A226R (enzyme)
chain: B1 chain with L28M, R29K, L86W, Y157M, N159D, V201N
B7: chymase C22S/P38Q/K40M/F41H/L99H/V138I/D175S/A190S/V213A/S218V/A226R (enzyme)
chain: B1 chain with L28M, R29H, L86H, Y157F, N159S
B8: chymase C22S/P38Q/K40M/F41R/L99Q/V138I/F173Y/D175N/A190S/V213A/S218V/A226R (enzyme)
chain: B1 chain with L28M, L86Q
B9: chymase C22S/P38Q/K40V/F41R/V138I/F173L/D175N/A190S/V213A/S218V/A226R (enzyme)
chain: B1 chain with L28V, Y157L
B10: chymase C22S/P38Q/K40M/F41R/L99Y/V138I/F173L/D175S/A190S/V213A/S218V/A226R (enzyme)
chain: B1 chain with L28M, L86Y, Y157L, N159S
B11: chymase C22S/P38Q/K40V/F41R/L99H/V138I/F173M/D175N/A190S/V213A/S218T/A226R (enzyme)
chain: B1 chain with L28V, L86H, Y157M, V201T
B12: chymase C22S/P38Q/K40A/F41R/V138I/F173S/D175T/A190S/V213A/S218V/A226R (enzyme)
chain: B1 chain with L28A, Y157S, N159T
B13: chymase C22S/P38Q/K40M/F41R/L99Y/V138I/F173Y/D175S/A190S/V213A/S218V/A226R (enzyme)
chain: B1 chain with L28M, L86Y, N159S
B14: chymase C22S/P38Q/K40M/F41R/V138I/F173Y/D175R/A190S/V213A/S218V/A226R (enzyme)
chain: B1 chain with L28M, N159R
B15: chymase C22S/P38Q/K40L/F41R/V138I/F173M/D175N/A190S/V213A/S218L/A226R (enzyme)
chain: B1 chain with Y157M, V201L
B16: chymase C22S/P38Q/K40M/F41R/L99H/V138I/D175Q/A190S/V213A/S218V/A226R (enzyme)
chain: B1 chain with L28M, L86H, Y157F, N159Q
B17: chymase C22S/P38Q/K40V/F41R/V138I/F173S/D175N/A190S/V213A/S218I/A226R (enzyme)
chain: B1 chain with L28V, Y157S, V201I
B18: chymase C22S/P38Q/K40L/F41R/L99N/V138I/F173Y/D175T/A190S/V213A/S218V/A226R (enzyme)
chain: B1 chain with L86N, N159T
B19: chymase C22S/P38Q/K40A/F41R/V138I/D175R/A190S/V213A/S218T/A226R (enzyme)
chain: B1 chain with L28A, Y157F, N159R, V201T
B20: chymase C22S/P38Q/K40M/F41R/L99N/V138I/D175N/A190S/V213A/S218T/A226R (enzyme)
chain: B1 chain with L28M, L86N, Y157F, V201T
B21: chymase C22S/P38Q/K40M/F41R/L99W/V138I/F173M/D175H/A190S/V213A/S218T/A226R (enzyme)
chain: B1 chain with L28M, L86W, Y157M, N159H, V201T
B22: chymase C22S/P38Q/K40M/F41H/V138I/F173Y/D175R/A190S/V213A/S218V/A226R (enzyme)
chain: B1 chain with L28M, R29H, N159R
B23: chymase C22S/P38Q/K40M/F41K/L99Y/V138I/F173M/D175Y/A190S/V213A/S218V/A226R (enzyme)
chain: B1 chain with L28M, R29K, L86Y, Y157M, N159Y
B24: chymase C22S/P38Q/K40A/F41T/L99Y/V138I/F173S/D175H/A190S/V213A/S218I/A226R (enzyme)
chain: B1 chain with L28A, R29T, L86Y, Y157S, N159H, V201I
B25: chymase C22S/P38Q/K40L/F41R/L99M/V138I/F173L/D175R/A190S/V213A/S218V/A226R (enzyme)
chain: B1 chain with L86M, Y157L, N159R
B26: chymase C22S/P38Q/K40A/F41R/L99H/V138I/F173Y/D175N/A190S/V213A/S218I/A226R (enzyme)
chain: B1 chain with L28A, L86H, V201I
B27: chymase C22S/P38Q/K40M/F41T/V138I/D175R/A190S/V213A/S218I/A226R (enzyme)
chain: B1 chain with L28M, R29T, Y157F, N159R, V201I
B28: chymase C22S/P38Q/K40M/F41H/V138I/D175S/A190S/V213A/A226R (enzyme)
chain: B1 chain with L28M, R29H, Y157F, N159S, V201S
B29: chymase C22S/P38Q/K40A/F41R/L99H/V138I/F173Y/D175N/A190S/V213A/S218V/A226R (enzyme)
chain: B1 chain with L28A, L86H
B30: chymase C22S/P38Q/K40M/F41R/L99N/V138I/F173Y/D175T/A190S/V213A/S218V/A226R (enzyme)
chain: B1 chain with L28M, L86N, N159T
B31: chymase C22S/P38Q/K40M/F41H/L99N/V138I/F173Y/D175S/A190S/V213A/S218T/A226R (enzyme)
chain: B1 chain with L28M, R29H, L86N, N159S, V201T
B32: chymase C22S/P38Q/K40A/F41R/L99Y/V138I/F173L/D175R/A190S/V213A/S218L/A226R (enzyme)
chain: B1 chain with L28A, L86Y, Y157L, N159R, V201L
B33: chymase C22S/P38Q/K40A/F41R/V138I/F173L/D175R/A190S/V213A/S218L/A226R (enzyme)
chain: B1 chain with L28A, Y157L, N159R, V201L
B34: chymase C22S/P38Q/K40M/F41R/V138I/F173L/D175N/A190S/V213A/S218L/A226R (enzyme)
chain: B1 chain with L28M, Y157L, V201L
B35: chymase C22S/P38Q/K40M/F41R/L99F/V138I/F173L/D175N/A190S/V213A/A226R (enzyme)
chain: B1 chain with L28M, L86F, Y157L, V201S
B36: chymase C22S/P38Q/K40Q/F41R/V138I/F173Y/D175N/A190S/V213A/S218V/A226R (enzyme)
chain: B1 chain with L28Q
B37: chymase C22S/P38Q/K40L/F41R/V138I/D175N/A190S/V213A/S218V/A226R (enzyme)
chain: B1 chain with Y157F
B38: chymase C22S/P38Q/K40L/F41R/L99H/V138I/F173Y/D175S/A190S/V213A/S218I/A226R (enzyme)
chain: B1 chain with L86H, N159S, V201I
B39: chymase C22S/P38Q/K40I/F41R/L99N/V138I/D175T/A190S/V213A/S218V/A226R (enzyme)
chain: B1 chain with L28I, L86N, Y157F, N159T
B40: chymase C22S/P38Q/K40M/F41R/L99Y/V138I/F173S/D175S/A190S/V213A/S218T/A226R (enzyme)
chain: B1 chain with L28M, L86Y, Y157S, N159S, V201T
B41: chymase C22S/P38Q/K40M/F41R/L99Q/V138I/F173Y/D175A/A190S/V213A/S218T/A226R (enzyme)
chain: B1 chain with L28M, L86Q, N159A, V201T
B42: chymase C22S/P38Q/K40Q/F41R/L99H/V138I/F173Y/D175S/A190S/V213A/S218V/A226R (enzyme)
chain: B1 chain with L28Q, L86H, N159S
B43: chymase C22S/P38Q/K40L/F41R/L99F/V138I/F173L/D175N/A190S/V213A/A226R (enzyme)
chain: B1 chain with L86F, Y157L, V201S
B44: chymase C22S/P38Q/K40A/F41R/L99H/V138I/D175R/A190S/V213A/S218L/A226R (enzyme)
chain: B1 chain with L28A, L86H, Y157F, N159R, V201L
B45: chymase C22S/P38Q/K40L/F41R/V138I/F173L/D175R/A190S/V213A/S218V/A226R (enzyme)
chain: B1 chain with Y157L, N159R
B46: chymase C22S/P38Q/K40L/F41K/L99N/V138I/F173Y/D175S/A190S/V213A/S218I/A226R (enzyme)
chain: B1 chain with R29K, L86N, N159S, V201I
B47: chymase C22S/P38Q/K40A/F41K/L99H/V138I/D175S/A190S/V213A/S218V/A226R (enzyme)
chain: B1 chain with L28A, R29K, L86H, Y157F, N159S
B48: chymase C22S/P38Q/K40M/F41R/V138I/F173L/D175K/A190S/V213A/S218V/A226R (enzyme)
chain: B1 chain with L28M, Y157L, N159K
B49: chymase C22S/P38Q/K40M/F41R/L99Y/V138I/F173L/D175Q/A190S/V213A/S218T/A226R (enzyme)
chain: B1 chain with L28M, L86Y, Y157L, N159Q, V201T
B50: chymase C22S/P38Q/K40A/F41R/L99H/V138I/F173Y/A190S/V213A/S218V/A226R (enzyme)
chain: B1 chain with L28A, L86H, N159D
B51: chymase C22S/P38Q/K40L/F41R/V138I/F173Y/D175H/A190S/V213A/S218T/A226R (enzyme)
chain: B1 chain with N159H, V201T
B52: chymase C22S/P38Q/K40A/F41R/L99H/V138I/F173Y/D175N/A190S/V213A/S218L/A226R (enzyme)
chain: B1 chain with L28A, L86H, V201L
B53: chymase C22S/P38Q/K40V/F41R/V138I/F173L/D175R/A190S/V213A/S218I/A226R (enzyme)
chain: B1 chain with L28V, Y157L, N159R, V201I
B54: chymase C22S/P38Q/K40L/F41R/L99Q/V138I/F173Y/D175N/A190S/V213A/S218V/A226R (enzyme)
chain: B1 chain with L86Q
B55: chymase C22S/P38Q/K40L/F41R/L99N/V138I/F173Y/D175N/A190S/V213A/S218V/A226R (enzyme)
chain: B1 chain with L86N

Target: Human Factor B (human) (UniProt P00751)
Test: cell-based or functional assay

Chain of Human Factor B (human) (P00751 26-764 limits assumed): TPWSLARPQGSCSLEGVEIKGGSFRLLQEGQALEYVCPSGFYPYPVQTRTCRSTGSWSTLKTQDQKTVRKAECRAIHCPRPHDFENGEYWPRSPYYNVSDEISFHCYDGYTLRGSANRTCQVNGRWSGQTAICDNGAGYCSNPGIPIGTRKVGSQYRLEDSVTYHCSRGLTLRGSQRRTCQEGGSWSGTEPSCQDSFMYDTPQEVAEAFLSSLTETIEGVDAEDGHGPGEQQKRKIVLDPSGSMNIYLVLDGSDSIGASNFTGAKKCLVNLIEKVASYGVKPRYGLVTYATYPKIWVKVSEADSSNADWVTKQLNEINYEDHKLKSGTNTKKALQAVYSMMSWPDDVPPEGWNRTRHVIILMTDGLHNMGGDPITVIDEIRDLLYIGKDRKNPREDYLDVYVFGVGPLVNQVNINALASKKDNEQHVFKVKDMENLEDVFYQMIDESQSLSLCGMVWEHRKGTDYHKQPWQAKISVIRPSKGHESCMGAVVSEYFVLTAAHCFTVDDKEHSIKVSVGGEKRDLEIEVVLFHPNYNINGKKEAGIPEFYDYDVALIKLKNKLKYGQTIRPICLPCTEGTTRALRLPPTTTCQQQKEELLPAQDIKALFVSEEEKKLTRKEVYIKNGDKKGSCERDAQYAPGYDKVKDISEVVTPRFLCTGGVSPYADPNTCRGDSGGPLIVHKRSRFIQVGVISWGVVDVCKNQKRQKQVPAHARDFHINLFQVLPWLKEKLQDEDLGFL

Binder | EC50 (Factor B ELISA after digestion) | fB Cleavage EC50
B1 | 42.5 nM | 36.3 nM
B2 |  | 314 nM
B3 |  | 882 nM
B4 |  | 1230 nM
B5 |  | 2190 nM
B6 |  | 956 nM
B7 |  | 277 nM
B8 |  | 157 nM
B9 |  | 279 nM
B10 |  | 814 nM
B11 |  | 639 nM
B12 |  | 1720 nM
B13 |  | 103 nM
B14 | 30.2 nM | 28.1 nM
B15 |  | 456 nM
B16 |  | 301 nM
B17 |  | 717 nM
B18 |  | 57.6 nM
B19 |  | 262 nM
B20 |  | 449 nM
B21 |  | 414 nM
B22 |  | 47.6 nM
B23 |  | 448 nM
B24 |  | 3130 nM
B25 |  | 213 nM
B26 |  | 92.9 nM
B27 |  | 218 nM
B28 |  | 1060 nM

Binder | EC50 (Factor B ELISA after digestion) | fB Cleavage EC50
B29 |  | 71.8 nM
B30 |  | 92.1 nM
B31 |  | 561 nM
B32 |  | 511 nM
B33 |  | 283 nM
B34 |  | 482 nM
B35 |  | 870 nM
B36 |  | 100 nM
B37 |  | 114 nM
B38 |  | 60.3 nM
B39 |  | 203 nM
B40 |  | 10600 nM
B41 |  | 724 nM
B42 |  | 150 nM
B43 |  | 631 nM
B44 |  | 191 nM
B45 |  | 113 nM
B46 |  | 144 nM
B47 |  | 142 nM
B48 |  | 350 nM
B49 |  | 1650 nM
B50 |  | 406 nM
B51 |  | 121 nM
B52 |  | 139 nM
B53 |  | 169 nM
B54 |  | 102 nM
B55 |  | 65.3 nM
